The subject of series [1] is ~260 nt segment of the 5′-end of the viral genome sequence (virus start). Put plainly: Ribozyme cleavage efficiency, test construct with longer ~260 nt virus start. To be noted: gel electrophoresis. The class given is biochemical, CVA21. As to the method: (§1) Experiments were performed to optimize the ribozyme sequence at the 5′ junctional cleavage sequence region of the in vitro transcription template for CVA21 viral genome based on the test construct design according to FIG. 10B. Initially, a short, about 60 nt segment(S) of the 5′-end of the viral genome (“virus start”) was used to identify ribozymes that yielded high cleavage efficiency. […] Specifically, for an initial candidate ribozyme that yielded >90% cleavage efficiency in the test construct with short ˜60 nt virus start, it yielded only about 10-35% cleavage efficiency upon incorporation of the expression construct for the full-length viral genome. […] Thus, the test construct was redesigned to include a longer, about 260 nt segment (L) of the 5′-end of the viral genome sequence. […] Therefore, the test construct “L” with longer virus start better recapitulates the cleavage efficiency of the candidate ribozyme when incorporated into the full-length viral genome.
Further optimization was performed in the DNA template encoding ENT27 ribozyme, including: • Replacing the P2 motif “TTGGTT” of ENT27-WT with “TTTGTT” (ENT27-V1) or “TTTATT” (ENT27-V2, ENT27-V3, ENT27-V4) to complement the 5′ end of the viral start “UUAAA” after ribozyme cleavage. • Inserting additional nucleotides “GAAA” (ENT27-V3) or “ACGAGAAATCGT” (ENT27-V4) into the P3 stem insert of the ENT27 ribozyme. These optimizations are illustrated in FIG. 11A and FIG. 11B.
The cleavage efficiencies of these optimized ENT27 ribyzomes were analyzed using the test constructs with longer ˜260 nt virus start. The leader sequence used in these constructs include L1 (SEQ ID NO: 135) and L2 (SEQ ID NO: 136).

Series [2] deals with full-length CVA21 viral genome RNA. Put plainly: Ribozyme cleavage efficiency in the full-length CVA21 viral genome expression construct. To be noted: L1 leader sequence, RT-dPCR and RNA digest methods, vs control vector CVA21v1. In kind it is biochemical. Here is the method: as §1
ENV27-V2 ribozyme and L1 leader sequence was then incorporated into the CVA21 viral genome expression construct and tested for cleavage efficiency using both RT-dPCR and RNA digest methods.

B1: ENV27-V3: ENV27 ribozyme variant, DNA SEQ ID NO: 133, TTTATT and GAAA inserted into P3 stem insert (nucleic acid)
DNA: ACTCGTTTGAGCGAGTATAAACAGTTTATTAGGCTCAAAGCGGAGAGCAGAGAAATCTGCTCTCG
modifications: expressed or natural sequence
Regarding B1, the cleavage efficiency result in series [1] is “improved the cleavage efficiency”.

B2: ENT27-WT: ENV27 ribozyme, corresponding DNA sequence SEQ ID NO: 130, P2 motif TTGGTT (nucleic acid)
DNA: ACTCGTTTGAGCGAGTATAAACAGTTGGTTAGGCTCAAAGCGGAGAGCAGATCTGCTCTCGTCCAA
modifications: further chemistry not given here
For B2, the cleavage efficiency result in series [1] is “promising candidate”.

B3: ENV27-V4: ENV27 ribozyme variant, DNA SEQ ID NO: 134, TTTATT and ACGAGAAATCGT inserted into P3 stem insert (nucleic acid)
DNA: ACTCGTTTGAGCGAGTATAAACAGTTTATTAGGCTCAAAGCGGAGAGCAGAACGAGAAATCGTTCTGCTCTCG
modifications: expressed or natural sequence
In the case of B3, the cleavage efficiency result in series [1] is “improved the cleavage efficiency”.

B4: ENV27-V2: ENV27 ribozyme variant, DNA SEQ ID NO: 132, P2 motif TTTATT; tested with L1 leader sequence (nucleic acid)
DNA: ACTCGTTTGAGCGAGTATAAACAGTTTATTAGGCTCAAAGCGGAGAGCAGATCTGCTCTCG
modifications: expressed or natural sequence
Consider B4, for which the cleavage efficiency entry in series [1] was “much better cleavage efficiency”; in series [2], > 90%.
